Changes are numbered by the printed parent chain. Numbers in names are those of the source.
How the values were obtained:
[1] = molecular target: T1, human ASGR1 extracellular domain (hASGR1 ECD) (UniProt P07306 62-291, biotinylated (His-Avi tag)); assay: BLI
T1 chain: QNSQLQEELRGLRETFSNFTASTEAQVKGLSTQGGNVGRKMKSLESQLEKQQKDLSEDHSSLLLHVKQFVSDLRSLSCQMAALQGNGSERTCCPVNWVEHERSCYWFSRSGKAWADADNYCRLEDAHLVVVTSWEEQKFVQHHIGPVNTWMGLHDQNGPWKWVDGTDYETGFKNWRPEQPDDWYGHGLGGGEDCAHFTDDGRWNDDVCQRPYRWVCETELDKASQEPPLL

[2] = molecular target: T2, mouse ASGR1 extracellular domain (mASGR1 ECD) (biotinylated (His-Avi tag)); assay: BLI
T2 chain: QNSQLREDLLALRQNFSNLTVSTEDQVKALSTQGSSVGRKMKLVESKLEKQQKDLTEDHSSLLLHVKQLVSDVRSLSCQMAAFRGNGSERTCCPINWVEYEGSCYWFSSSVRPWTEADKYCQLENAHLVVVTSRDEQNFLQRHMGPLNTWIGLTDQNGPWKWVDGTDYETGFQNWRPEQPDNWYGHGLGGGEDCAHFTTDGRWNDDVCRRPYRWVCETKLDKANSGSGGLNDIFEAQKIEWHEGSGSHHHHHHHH

[3] = molecular target: T1, human ASGR1 extracellular domain …; assay: BLI
[4] = molecular target: T3, Fc portion of human IgG1-fused LGR5-ECD (R&D systems) (UniProt O75473 22-557); assay: BLI steady-state
T3 chain: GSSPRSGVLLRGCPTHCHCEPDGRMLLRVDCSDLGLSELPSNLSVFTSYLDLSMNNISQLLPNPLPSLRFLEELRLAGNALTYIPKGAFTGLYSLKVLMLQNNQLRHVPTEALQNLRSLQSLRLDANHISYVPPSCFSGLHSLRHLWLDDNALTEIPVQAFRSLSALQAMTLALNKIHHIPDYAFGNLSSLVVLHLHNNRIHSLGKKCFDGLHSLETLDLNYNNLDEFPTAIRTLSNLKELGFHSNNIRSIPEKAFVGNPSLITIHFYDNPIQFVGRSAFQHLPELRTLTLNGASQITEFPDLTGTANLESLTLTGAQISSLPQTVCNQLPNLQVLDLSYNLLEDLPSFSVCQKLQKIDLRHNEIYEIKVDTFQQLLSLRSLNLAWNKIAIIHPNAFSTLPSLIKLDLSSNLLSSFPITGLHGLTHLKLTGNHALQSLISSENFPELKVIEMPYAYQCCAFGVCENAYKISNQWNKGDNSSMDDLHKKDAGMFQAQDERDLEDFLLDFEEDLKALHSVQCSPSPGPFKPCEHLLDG

[5] = molecular target: T4, human RNF43 extracellular domain (hRNF43 ECD) (UniProt Q68DV7 44-197, biotinylated (His-Avi tag)); assay: BLI; steady-state fit
T4 chain: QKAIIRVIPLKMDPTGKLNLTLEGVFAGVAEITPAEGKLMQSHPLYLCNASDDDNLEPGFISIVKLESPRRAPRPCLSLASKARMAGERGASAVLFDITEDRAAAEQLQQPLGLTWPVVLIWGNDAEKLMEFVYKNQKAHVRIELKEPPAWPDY

[6] = molecular target: T5, human ZNRF3 extracellular domain (hZNRF3 ECD) (UniProt Q9ULT6 56-219, biotinylated (His-Avi tag)); assay: BLI; steady-state fit
T5 chain: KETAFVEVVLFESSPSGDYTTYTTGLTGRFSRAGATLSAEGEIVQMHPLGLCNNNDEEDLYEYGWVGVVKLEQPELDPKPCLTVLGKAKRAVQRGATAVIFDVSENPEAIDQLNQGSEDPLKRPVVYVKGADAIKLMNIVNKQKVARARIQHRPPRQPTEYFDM

[7] = molecular target: T6, human ASGR2 extracellular domain (hASGR2 ECD) (UniProt P07307 86-311, biotinylated (His/Avi tag)); assay: BLI
T6 chain: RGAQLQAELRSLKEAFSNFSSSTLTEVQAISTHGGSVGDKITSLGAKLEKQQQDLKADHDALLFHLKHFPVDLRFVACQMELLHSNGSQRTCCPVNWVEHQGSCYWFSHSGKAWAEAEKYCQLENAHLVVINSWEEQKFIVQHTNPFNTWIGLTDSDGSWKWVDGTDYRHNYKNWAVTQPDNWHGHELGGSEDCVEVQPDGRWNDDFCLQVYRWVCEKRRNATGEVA

[8] = molecular target: T5, human ZNRF3 extracellular domain …; assay: BLI steady-state
[9] = molecular target: T4, human RNF43 extracellular domain …; assay: BLI steady-state
[10] = molecular target: T1, human ASGR1 extracellular domain …; assay: BLI; steady-state fit

B1: anti-ASGR1 Fab (Fab, V domains shown)
VH: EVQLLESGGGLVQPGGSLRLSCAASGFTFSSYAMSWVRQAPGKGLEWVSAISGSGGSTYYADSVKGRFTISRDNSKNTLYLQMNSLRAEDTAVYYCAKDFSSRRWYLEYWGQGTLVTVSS
VL: DIELTQDPAVSVALGQTVRITCQGDSLRSYYASWYQQKPGQAPVLVIYGKNNRPSGIPDRFSGSSSGNTASLTITGAQAEDEADYYCNSLERIGYLSYVFGGGTKLTVLG
**Q.** How did the Kd [1] turn out when B1 was run?
**A.** Its Kd is 349 nM.

**Q.** What about the Kd [2] of the same binder?
**A.** The Kd was 213 nM.

B2: LP1-2I13 Fab (Fab, V domains shown)
VH: EVQLVESGGGLVKPGGSRKLSCAASGFTFSDYGMHWVRQAPEKGLEWVAYISSGSSTIYYADTVKGRFTISRDNAKNTLFLQMTSLRSEDTAMYYCSRKGGFGDYEKSYAMDYWGQGTSVTVSS
VL: DIQMTQSPASLSASVGETVTITCRASENIYSYLVWYQQKQGKSPQLLVYNAKTLAEGVPSRFSGSGSGTQFSLKINSLQPEDFGSYYCQHHYGTWTFGGGIKLEIK
**Q.** For B2, which Kd [3] is on record?
**A.** The Kd was 7.3 nM.

B3: αTFR1-RSPO2-WT (anti-TFR1, RSPO2 wild type) (other)
chain: QVQLQQSGPELVRPGVSVKISCKGSGYTFTDYAMHWVKQSHAKSLEWIGGISTYFGRTNYNQKFKGRATMTVDKSSSTAYMELARLTSEDSALYYCARGLSGNYVMDYWGQGTSVTVSSGGGGSGGGGSGGGGSDIVLFQSPASLAVSLGQRATISCRASESVDDYGNSFMHWYQQKPGQPPKLLIYRASNLESGIPARFSGSGSRTDFTLTINPVEADDVATYYCQQSNEAPPTFGGGTKLEIRGSGGSNPICKGCLSCSKDNGCSRCQQKLFFFLRREGMRQYGECLHSCPSGYYGHRAPDMNRCARCRIENCDSCFSKDFCTKCKVGFYLHRGRCFDECPDGFAPLEETMECVEGGDYKDDDDKGSHHHHHHHH
**Q.** For B3, which Kd [4] is on record?
**A.** Its Kd is 5 nM.

**Q.** And the Kd [5]?
**A.** The Kd was 44 nM.

**Q.** What about the Kd [6] of the same binder?
**A.** Its Kd is 72 nM.

B4: αTFR1-RSPO2-RA (anti-TFR1, RSPO2 (F105R/F109A)) (other)
chain: B3 chain with F319R, F323A
**Q.** With B4 as the binder, how does the Kd [5] read?
**A.** Its Kd is 45 nM.

**Q.** And the Kd [6]?
**A.** The Kd was 75 nM.

B5: Abv-3D11 Fab (Fab, V domains shown)
VH: EVQLVESGGGLVQPKGSLKLSCAASGFSFNTYAMNWVRQAPGKGLEWVARIRSKSNNYATYYADSVKDRFTISRDDSESMLYLQMNNLKTEDTAMYYCVRPRYDYWYFDVWGTGTTVTVSS
VL: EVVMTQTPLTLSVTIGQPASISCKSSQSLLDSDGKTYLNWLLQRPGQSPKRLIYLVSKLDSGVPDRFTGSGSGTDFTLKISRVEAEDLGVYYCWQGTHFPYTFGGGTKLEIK
**Q.** With B5 as the binder, how does the Kd [7] read?
**A.** Its Kd is 110 nM.

B6: LP1-8M24 Fab (Fab, V domains shown)
VH: QVQLQQSGAELARPGASVKLSCKASGYTFTNYGINWVKQRTGQGLEWIGEIFPRSDNTFYNEKFKGKATLTADKSSTTAYMELRSLTSEDSAVYFCARKGRDYGTSHYFDYWGQGTTLTVSS
VL: DIQMTQSPASLSVSVGETVTITCRISENIYSNLAWYQQKQGKSPHLLVYAAINLADGVPSRFSGSGSGTQFSLKINSLQSEDFGSYYCQHFWGTPFTFGSGTKLEIK
**Q.** B6 was tested. Which Kd [3] did it give?
**A.** The Kd was 0.17 nM.

B7: αGFP-RSPO2-RA (anti-GFP, RSPO2 (F105R/F109A)) (other)
chain: QVQLVESGGGLVQPGGSLRLSCAASGFTFSRYGMHWVRQAPGKGLEWVSGISSIGSNTYYADSVKGRFTISRDNSKNTLYLQMNSLRAEDTAVYYCARWYKTYIDVWGQGTLVTVSSGGGGSGGGGSGGGGSDIELTQPPSVSVAPGQTARISCSGDNLGKKYVYWYQQKPGQAPVLVIYGDDERPSGIPERFSGSNSGNTATLTISGTQAEDEADYYCASYDSSHILIVFGGGTKLTVLGSGGSNPICKGCLSCSKDNGCSRCQQKLFFFLRREGMRQYGECLHSCPSGYYGHRAPDMNRCARCRIENCDSCRSKDACTKCKVGFYLHRGRCFDECPDGFAPLEETMECVEGGDYKDDDDKGSHHHHHHHH
**Q.** B7 was tested. Which Kd [8] did it give?
**A.** The Kd was 170 nM.

**Q.** What about the Kd [9] of the same binder?
**A.** The Kd was 31 nM.

B8: αGFP-RSPO2-WT (anti-GFP, RSPO2 wild type) (other)
chain: B7 chain with R314F, A318F
**Q.** How did the Kd [8] turn out when B8 was run?
**A.** Its Kd is 160 nM.

**Q.** What about the Kd [9] of the same binder?
**A.** Its Kd is 42 nM.

B9: 024S-E03 Fab (Fab, V domains shown)
VH: QVQLQQSGPGLVKPSQTLSLTCAISGASVSSNSAAWNWIRQSPSRGLEWLGRTYYRSKWYNDYAVSVKSRITINPDTSKNQFSLQLNSVTPGDTAVYYCARWNHEEHYFDYWGQGTLVTVSS
VL: DVVMTQSPATLSFSPGERATLSCRASQSVGSYLAWYQQRPGQAPRPLIYDATNRATGIPTRFSGSGSGTDFTLTISSLEPEDFATYYCQHRRTFGRGTKLEIK
**Q.** How did the Kd [10] turn out when B9 was run?
**A.** The Kd was 180 nM.

B10: 024S-A04 Fab (Fab, V domains shown)
VH: QVQLQQSGPGLVKPSQTLSLTCAISGDSVSSNSVAWNWMRQSPSRGLEWLGRTYYRSKWYYDYAVSVKSRITINPDTSKNQFSLQLNSVTPEDTAVYYCASWTRGAFDIWGQGTMVTVSS
VL: B9 VL with V2I, V3Q, M4L
**Q.** For B10, which Kd [10] is on record?
**A.** Its Kd is 100 nM.

B11: 024S-D03 Fab (Fab, V domains shown)
VH: B9 VH with A27D, I39M, I71M, K79R, P91L, G92E
VL: B9 VL with D1E, V2I, M4L
**Q.** With B11 as the binder, how does the Kd [10] read?
**A.** Its Kd is 130 nM.

B12: Abv-10B8 Fab (Fab, V domains shown)
VH: DVKLVESGEGLVKPGGSLKLSCAASGFTFSSYAMSWVRQTPEKRLEWVAYISSGGDYIYYVDTVKGRFTISRDNARNTLYLQMSSLKSEDTAVYYCTREGTGGMDYWGQGTSVTVSS
VL: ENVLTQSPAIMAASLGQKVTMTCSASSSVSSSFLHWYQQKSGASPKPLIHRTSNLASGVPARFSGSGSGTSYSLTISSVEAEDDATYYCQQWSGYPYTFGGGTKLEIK
**Q.** B12 was tested. Which Kd [7] did it give?
**A.** Its Kd is 230 nM.
